Consider 72 sequences from the supplement of paper PMC10567573.

This data set in a line: protein stability index of a GFP-peptide fusion (GPS, HEK-293T) (PSI 1-6); higher = more stable.
The mark [1] stands for this setting: treatment: DMSO, c terminus: a fixed tail appended.
The mark [2] stands for this setting: treatment: MLN4924 1 uM, 8 h, c terminus: a fixed tail appended.
Where [3] appears, read: treatment: DMSO, c terminus: native.
The mark [4] stands for this setting: treatment: MLN4924 1 uM, 8 h, c terminus: native.

± gives the standard deviation.
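Also: 24-mer peptide tiles fused after GFP, lentivirally expressed, FACS-sorted into six equal bins by GFP/DsRed ratio, decoded by Illumina sequencing, PSI is the read-weighted mean bin number.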

For TFWKEDKAFWKEDNALWERDRNLL [CCDC70], the protein stability index by setting is: under setting [1], 2.95 ± 0.12; under setting [2], 3.2 ± 0.43.

With TFYVRFFLTYVPLLGLKAFLGLFF [FADS1], the protein stability index by setting is: under setting [1], 2.93 ± 0.3; under setting [2], 3.24 ± 0.29.

Turning to TGERPHQCIECGKSFNRHCNLIRH [ZSCAN9], the protein stability index amounted to 3.13 ± 0.17 under setting [1] and 3.35 ± 0.38 under setting [2].

In the case of TGNPKSEEPEVPDQEGLQRITGLS [SPNS1], the protein stability index reads like this: under setting [1], 5.35 ± 0.26; under setting [2], 5.41 ± 0.16.

Take TGQSKIYSYMSPNKCSGMRFPLQE [KMT5A]: the protein stability index reads like this: under setting [1], 2.28 ± 0.29; under setting [2], 2.27 ± 0.11.

Take THKKCKEEVVSTLDAVQVLSGVSQ [FCHO1]: the protein stability index stood at 3.77 ± 0.23 under setting [1] and 3.64 ± 0.16 under setting [2].

As for TIDDTISKFRRKDREDSPERCSDS [CLINT1], the protein stability index runs as follows: under setting [1], 5.5 ± 0.3; under setting [2], 5.44 ± 0.3.

Consider TILPQEIQSRVQELHPESGEEAVT [ZNF263], for which the protein stability index by setting is: under setting [1], 5.11 ± 0.25; under setting [2], 5.33 ± 0.28.

For TKILQERAVLGANDPEKNFLTTAI [NSDHL], the protein stability index was determined as 3.53 ± 0.14 under setting [1] and 3.38 ± 0.13 under setting [2].

In turn, TKLQAQHVSYRELGACVRTAVAQG [SLC25A39] had a protein stability index under setting [1] of 3.05 ± 0.42 and a protein stability index under setting [2] of 3.29 ± 0.32.

Regarding TKPSFESGRRGPPPPPRSRGPPRG [RBMX], the protein stability index worked out at 4.74 ± 0.33 under setting [1] and 4.81 ± 0.29 under setting [2].

Regarding TKPVVILPCQHNLCRKCANDIFQA [TRIM63], the protein stability index under setting [1] amounted to 2.36 ± 0.26 and the protein stability index under setting [2] stood at 2.55 ± 0.27.

For the sequence TLDGRTPLHLAAQRGHYRVARILI [RIPK4], the protein stability index stood at 1.97 ± 0.44 under setting [1] and 1.92 ± 0.36 under setting [2].

With TLGEVPAAESPDPPQSPQGASSLP [MAGEA3], the protein stability index runs as follows: under setting [1], 5.5 ± 0.22; under setting [2], 5.37 ± 0.1.

Consider TLGQAWQGYVSDIRRFLSAFHEPQ [DFFB], for which the protein stability index turned out to be 2.29 ± 0.18 under setting [1] and 2.04 ± 0.22 under setting [2].

In turn, TLHPISSEELLSLKYENDYPSVIL [ETS1] came in with a protein stability index under setting [1] of 2.55 ± 0.17 and a protein stability index under setting [2] of 2.76 ± 0.23.

TLSFNMSDKYPIQDTELPKAEECD [EDARADD]: the protein stability index is, setting by setting: under setting [1], 4.55 ± 0.39; under setting [2], 4.36 ± 0.31.

For the sequence TLVDESDLYNWEVAIFGPPNTLYE [UBE2R2], the protein stability index came out at 2.71 ± 0.17 under setting [1] and 2.81 ± 0.17 under setting [2].

As to TMGAVVLSSTLLSFSTAIGRTCIT [MFSD9], the protein stability index by setting is: under setting [1], 2.98 ± 0.48; under setting [2], 3.22 ± 0.29.

In the case of TNAGFLQTESELQELSEVLELLSA [FAN1], the protein stability index is, setting by setting: under setting [1], 3.04 ± 0.21; under setting [2], 3.03 ± 0.53.

Turning to TNALTHTVAMSTLNFCGPNVINHF [OR3A1], the protein stability index came out at 2.41 ± 0.57 under setting [1] and 2.47 ± 0.27 under setting [2].

For the sequence TPQHHEKQYAMQRPNDDSLAFLDK [IQUB], the protein stability index reads like this: under setting [1], 4.53 ± 0.23; under setting [2], 4.58 ± 0.17.

On to TQARQVMEREFNNLLALGTDRKLD [PPFIA4], for which the protein stability index came out at 4.21 ± 0.52 under setting [1] and 4.12 ± 0.38 under setting [2].

TREAHRESSVPVTPSVPPPASQHS [FBF1]: the protein stability index is, setting by setting: under setting [1], 4.94 ± 0.099; under setting [2], 5.07 ± 0.12.

In turn, TSDGYTALHLAARNGHLATVKLLV [RIPK4] displayed a protein stability index under setting [1] of 2.35 ± 0.57 and a protein stability index under setting [2] of 2.25 ± 0.33.

In the case of TSDSEGAHVNTLHSGTKRDPKEDV [PHTF1], the protein stability index runs as follows: under setting [1], 5.51 ± 0.22; under setting [2], 5.54 ± 0.21.

Sequence TSFIRGPNPSKVLQQLLVLQPEQQ [CDS1] yielded a protein stability index under setting [1] of 3.37 ± 0.19 and a protein stability index under setting [2] of 3.3 ± 0.095.

Take TSGNPNGRYGSGYLLASTPESEL [SLC6A17]: the protein stability index by setting is: under setting [3], 4.62 ± 0.37; under setting [4], 4.58 ± 0.2.

As to TSKCGSLKNIRHRPGGGRVKIESV [MAP2], the protein stability index reads like this: under setting [1], 3.1 ± 0.21; under setting [2], 3.3 ± 0.44.

For TSPHFSTRHEGSFQVPVLCAVMNV [CD69], the protein stability index reads like this: under setting [1], 2.81 ± 0.51; under setting [2], 2.63 ± 0.59.

For the sequence TTFRGHTGGVTALCWDPVQRVLFS [WDFY2], the protein stability index reads like this: under setting [1], 2.25 ± 0.23; under setting [2], 2.26 ± 0.23.

As to TVDLELELQIELLRETKRKYESVL [ARFIP2], the protein stability index reads like this: under setting [1], 2.71 ± 0.19; under setting [2], 2.91 ± 0.22.

Regarding TVLLEEETLEASVGPRETEEKVRD [TOR1AIP2], the protein stability index is 5.59 ± 0.21 under setting [1] and 5.51 ± 0.24 under setting [2].

Consider TVTVISPLELMRTKLQAQHVSYRE [SLC25A39], for which the protein stability index worked out at 2.65 ± 0.41 under setting [1] and 2.81 ± 0.22 under setting [2].

For the sequence TYEKLSRAMRYYYKREILERVDGR [ELF3], the protein stability index reads like this: under setting [1], 2.21 ± 0.4; under setting [2], 2.26 ± 0.37.

On to TYLRLIVDHHGTAQLQALRQKEVD [INTS3], for which the protein stability index is, setting by setting: under setting [1], 2.27 ± 0.2; under setting [2], 2.35 ± 0.3.

Regarding TYVDKKRDLLGALKHWRRAMELRH [FEM1A], the protein stability index runs as follows: under setting [1], 2.28 ± 0.26; under setting [2], 2.31 ± 0.11.

Regarding VAMLGVFLVSAVAHEYIFCFVLGF [SOAT2], the protein stability index worked out at 3.21 ± 0.36 under setting [1] and 3.14 ± 0.5 under setting [2].

VASCMHRQETVDCLKKFNARRKLK [CAMK2A] showed a protein stability index under setting [1] of 4.05 ± 0.69 and a protein stability index under setting [2] of 4.03 ± 0.26.

Turning to VCYHYYADWFMSLGVGLLTFASLE [TMEM40], the protein stability index amounted to 3.04 ± 0.18 under setting [1] and 3.08 ± 0.18 under setting [2].

Consider VDISVPPTTDGQKPNKLQCCQNL [RAB11B], for which the protein stability index reads like this: under setting [3], 4.77 ± 0.31; under setting [4], 4.93 ± 0.091.

Consider VEMLCDQAWGSMLEVPAGSRLNLT [CCDC3], for which the protein stability index worked out at 2.75 ± 0.28 under setting [1] and 2.96 ± 0.31 under setting [2].

Regarding VEQMTKEERQAAQNECQVLKLLNH [NEK8], the protein stability index reads like this: under setting [1], 4.59 ± 0.18; under setting [2], 4.63 ± 0.15.

Turning to VEQPKGTEVVRDAVRKLKFARHIK [GULP1], the protein stability index was 3.7 ± 0.11 under setting [1] and 3.77 ± 0.16 under setting [2].

As for VERAQQVAVQEQEIARREKELEAR [FLOT1], the protein stability index amounted to 5.27 ± 0.36 under setting [1] and 5.3 ± 0.18 under setting [2].

Turning to VERPHSGLPGKVFACLSVLFVTVT [KCNG1], the protein stability index reads like this: under setting [1], 3.03 ± 0.73; under setting [2], 2.52 ± 0.38.

In turn, VFDNAIRAALISRRHLQFWKSHLK [RHOBTB1] yielded a protein stability index under setting [1] of 2.06 ± 0.63 and a protein stability index under setting [2] of 2.4 ± 0.29.

Regarding VFSYFLATDMISIFEPPVRNSGII [EFHC1], the protein stability index by setting is: under setting [1], 3.65 ± 0.91; under setting [2], 3.14 ± 0.67.

As to VGELLPCKICGRTFFPVALKKHGP [ZC2HC1A], the protein stability index was determined as 2.84 ± 0.51 under setting [1] and 2.57 ± 0.19 under setting [2].

As for VGSGGATSGKLLLEADELCDDGGD [ZBTB22], the protein stability index under setting [1] was 5.56 ± 0.22 and the protein stability index under setting [2] worked out at 5.55 ± 0.22.

As to VHQRGSSTAKKEDINLSVRKLLNR [TRIP13], the protein stability index was 3.72 ± 0.31 under setting [1] and 3.87 ± 0.25 under setting [2].

For VKDDDRLTFHRHPVAQSTDGIRGK [SPSB4], the protein stability index by setting is: under setting [1], 4.89 ± 0.25; under setting [2], 4.83 ± 0.23.

As for VKELGTVMRMLGQTPTKEELDAII [TNNC2], the protein stability index was 3.02 ± 0.29 under setting [1] and 3.04 ± 0.94 under setting [2].

Take VKEPCSLPMLSVDMENKENGSVGV [SAMD13]: the protein stability index runs as follows: under setting [1], 5 ± 0.19; under setting [2], 5.11 ± 0.21.

For the sequence VKNDRDRVGHKSIPMRNLRARPAK [SERPINB5], the protein stability index is 3.98 ± 0.35 under setting [1] and 4.4 ± 0.11 under setting [2].

In the case of VKTRLEQEIATYRRLLEGEDAHLT [KRT17], the protein stability index was 3.62 ± 0.14 under setting [1] and 3.77 ± 0.3 under setting [2].

For VLGFLIENFKGLAIPYLEHIIHVW [VPS39], the protein stability index runs as follows: under setting [1], 2.36 ± 0.46; under setting [2], 2.5 ± 0.31.

Regarding VLMIAIQLISRMEYVHSKNLIYRD [CSNK1G3], the protein stability index is, setting by setting: under setting [1], 2.86 ± 0.13; under setting [2], 2.72 ± 0.44.

As for VLQENYTHLPKADIFALALTVVCA [WEE1], the protein stability index by setting is: under setting [1], 2.69 ± 0.85; under setting [2], 2.38 ± 0.27.

Consider VLQIDNAKLAADDFRTKYETELSL [KRT36], for which the protein stability index is, setting by setting: under setting [1], 3.54 ± 0.37; under setting [2], 3.49 ± 0.14.

For the sequence VLVLTKPLGTQVAVNAHQWLDNPE [SEPHS2], the protein stability index under setting [1] worked out at 2.4 ± 0.18 and the protein stability index under setting [2] amounted to 2.19 ± 0.37.

Consider VLYALRSFDYEQFHELQMQVTASD [PCDHGA10], for which the protein stability index was found to be 2.26 ± 0.12 under setting [1] and 2.22 ± 0.27 under setting [2].

Turning to VMFQRRYYKPGLLMMCFILPTLVP [SCD], the protein stability index is, setting by setting: under setting [1], 3.51 ± 0.77; under setting [2], 2.72 ± 0.71.

VNPNGQKQQLVDAFLKLAKQRSVC [FAN1]: the protein stability index reads like this: under setting [1], 3.16 ± 0.27; under setting [2], 2.92 ± 0.32.

Turning to VNQYVIRPGPSASAASSAAAGEPL [RNF208], the protein stability index under setting [1] came to 3.88 ± 0.22 and the protein stability index under setting [2] was 3.96 ± 0.23.

VNSVCWASLNHLDSHILLCLMGLA [DCAF4]: the protein stability index came to 2.51 ± 0.63 under setting [1] and 2.69 ± 0.36 under setting [2].

With VNVGTTALWKHLKSMHREELEKSG [ZBED2], the protein stability index under setting [1] was determined as 3.65 ± 0.24 and the protein stability index under setting [2] turned out to be 3.48 ± 0.23.

As for VPIPTVNQYLYFLFAPTLIYRDSY [SOAT1], the protein stability index runs as follows: under setting [1], 3.32 ± 0.3; under setting [2], 3.24 ± 0.24.

As to VQSYMEHYCNSSTDRRVLLMFLDI [SPACA9], the protein stability index was 2.78 ± 0.38 under setting [1] and 2.71 ± 0.56 under setting [2].

VRKREAPAPEAESKQTEKDPGVQE [EFHC1]: the protein stability index reads like this: under setting [1], 5.47 ± 0.27; under setting [2], 5.61 ± 0.34.

As to VSLVTAELSKDAQASAAPAAPLPE [SLC29A1], the protein stability index under setting [1] stood at 4.44 ± 0.18 and the protein stability index under setting [2] was determined as 4.47 ± 0.16.

For the sequence VTGETRVLSSTTLLPRQPLPLGIK [PALM], the protein stability index runs as follows: under setting [1], 3.66 ± 0.35; under setting [2], 3.63 ± 0.22.
